Source: paper PMC9976902, “Interaction of human HelQ with DNA polymerase delta halts DNA synthesis and stimulates DNA single-strand annealing” (Nucleic Acids Research, 2022)
Values belong to the binder of their own block, whether it stands above or below them.

Key:
[1] = target: T1, human DNA polymerase δ complex (PolD1-4) (human, UniProt P28340 1-1107; P49005 1-469; Q15054 1-466; Q9HCU8 1-107)
[2] = target: T1, human DNA polymerase δ complex (PolD1-4); assay: cell-based or functional assay
[3] = target: T2, human Pol δ sub-unit POLD3, purified individually (human, UniProt Q15054 1-466); assay: cell-based or functional assay
T2 sequence (looked up): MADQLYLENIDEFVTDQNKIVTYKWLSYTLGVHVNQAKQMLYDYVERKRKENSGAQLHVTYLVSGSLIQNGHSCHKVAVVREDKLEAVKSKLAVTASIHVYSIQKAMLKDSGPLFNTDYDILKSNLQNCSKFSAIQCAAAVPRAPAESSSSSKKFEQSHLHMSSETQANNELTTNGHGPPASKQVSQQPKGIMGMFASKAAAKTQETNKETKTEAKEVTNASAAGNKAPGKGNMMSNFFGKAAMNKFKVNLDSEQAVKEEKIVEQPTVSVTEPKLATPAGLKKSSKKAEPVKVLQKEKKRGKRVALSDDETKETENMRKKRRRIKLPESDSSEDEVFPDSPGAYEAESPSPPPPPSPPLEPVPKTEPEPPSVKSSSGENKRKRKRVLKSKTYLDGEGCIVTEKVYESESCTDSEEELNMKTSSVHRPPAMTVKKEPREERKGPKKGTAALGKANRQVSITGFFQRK

[4] = target: T3, HelQ (human, UniProt Q8TDG4 1-1101); assay: EMSA; 50 mM EDTA; HelQ 100-400 nM, DNA 15 nM; EMSA: 20 mM Tris-HCl pH 7.5, 100 mg/ml BSA (so in the source), 7% glycerol, 25 mM DTT, 50 mM EDTA, 25 nM DNA (Methods; 15 nM in legend), 37 C 10 min, 5% TBE gel; settings: protein: recombinant; label: Cy5 end label; fork 1:2-25 paired with 2:27-50; 3' tail 25 nt (strand 1), 5' tail 26 nt (strand 2), 1 nt 5' overhang on strand 1
T3 sequence: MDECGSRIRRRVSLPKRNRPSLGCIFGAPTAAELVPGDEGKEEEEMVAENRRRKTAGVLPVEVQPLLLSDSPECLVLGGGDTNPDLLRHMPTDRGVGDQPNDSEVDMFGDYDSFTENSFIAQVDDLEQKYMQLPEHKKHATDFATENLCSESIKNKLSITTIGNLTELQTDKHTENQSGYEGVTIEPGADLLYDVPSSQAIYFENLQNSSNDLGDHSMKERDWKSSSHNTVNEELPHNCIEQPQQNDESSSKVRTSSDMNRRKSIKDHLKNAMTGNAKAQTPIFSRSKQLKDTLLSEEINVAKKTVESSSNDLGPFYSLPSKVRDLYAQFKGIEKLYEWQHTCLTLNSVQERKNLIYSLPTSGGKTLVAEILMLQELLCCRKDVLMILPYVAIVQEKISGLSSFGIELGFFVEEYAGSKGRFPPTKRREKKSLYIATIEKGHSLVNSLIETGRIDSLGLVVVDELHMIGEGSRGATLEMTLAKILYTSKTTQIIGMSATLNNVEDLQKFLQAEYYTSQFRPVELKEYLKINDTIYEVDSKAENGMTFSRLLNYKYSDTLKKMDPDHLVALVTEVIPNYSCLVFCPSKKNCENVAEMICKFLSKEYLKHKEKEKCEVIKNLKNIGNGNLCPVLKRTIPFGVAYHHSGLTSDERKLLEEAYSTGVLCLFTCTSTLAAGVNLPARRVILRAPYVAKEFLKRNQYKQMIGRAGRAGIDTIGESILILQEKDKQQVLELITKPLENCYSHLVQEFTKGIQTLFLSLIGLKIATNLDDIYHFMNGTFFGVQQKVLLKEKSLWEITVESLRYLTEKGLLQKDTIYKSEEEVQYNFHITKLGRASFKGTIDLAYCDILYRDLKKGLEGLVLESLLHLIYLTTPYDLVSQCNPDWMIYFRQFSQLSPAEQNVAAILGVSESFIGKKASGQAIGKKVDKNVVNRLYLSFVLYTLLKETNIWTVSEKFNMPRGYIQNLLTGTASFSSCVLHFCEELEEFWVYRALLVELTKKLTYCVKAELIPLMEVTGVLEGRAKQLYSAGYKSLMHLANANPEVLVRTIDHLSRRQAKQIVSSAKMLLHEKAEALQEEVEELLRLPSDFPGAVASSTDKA

T1 sequence (P28340 whole entry, stated change not applied, chain 1 of 3): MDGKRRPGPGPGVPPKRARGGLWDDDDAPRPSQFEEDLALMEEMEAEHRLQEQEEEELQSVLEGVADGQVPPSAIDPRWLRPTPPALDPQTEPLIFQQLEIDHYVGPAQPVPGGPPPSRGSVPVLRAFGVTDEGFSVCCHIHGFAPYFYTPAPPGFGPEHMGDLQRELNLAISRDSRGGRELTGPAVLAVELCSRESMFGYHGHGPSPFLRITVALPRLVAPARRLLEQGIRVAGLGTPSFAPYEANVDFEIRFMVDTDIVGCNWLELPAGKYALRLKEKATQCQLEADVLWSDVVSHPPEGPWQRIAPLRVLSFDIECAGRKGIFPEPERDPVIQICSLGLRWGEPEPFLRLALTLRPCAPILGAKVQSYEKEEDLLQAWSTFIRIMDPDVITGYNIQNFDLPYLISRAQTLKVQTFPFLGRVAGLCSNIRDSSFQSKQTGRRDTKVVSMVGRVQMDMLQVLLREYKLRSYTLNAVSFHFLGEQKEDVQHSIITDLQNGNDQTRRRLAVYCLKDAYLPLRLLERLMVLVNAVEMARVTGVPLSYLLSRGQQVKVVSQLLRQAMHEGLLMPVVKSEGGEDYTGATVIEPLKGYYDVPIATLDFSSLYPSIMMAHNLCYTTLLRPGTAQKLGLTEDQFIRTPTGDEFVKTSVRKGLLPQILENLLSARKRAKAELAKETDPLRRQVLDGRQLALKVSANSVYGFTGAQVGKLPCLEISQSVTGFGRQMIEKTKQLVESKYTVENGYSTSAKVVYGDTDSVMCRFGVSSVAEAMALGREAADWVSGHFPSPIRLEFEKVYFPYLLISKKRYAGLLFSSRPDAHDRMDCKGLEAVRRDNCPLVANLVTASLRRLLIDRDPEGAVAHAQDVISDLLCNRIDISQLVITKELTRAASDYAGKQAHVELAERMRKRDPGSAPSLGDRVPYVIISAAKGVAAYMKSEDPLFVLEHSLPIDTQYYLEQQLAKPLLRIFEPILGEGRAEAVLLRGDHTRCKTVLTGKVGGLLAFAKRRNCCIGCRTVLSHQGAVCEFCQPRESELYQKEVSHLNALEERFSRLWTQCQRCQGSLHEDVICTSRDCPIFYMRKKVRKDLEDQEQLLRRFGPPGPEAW
T1 sequence (P49005 whole entry, stated change not applied, chain 2 of 3): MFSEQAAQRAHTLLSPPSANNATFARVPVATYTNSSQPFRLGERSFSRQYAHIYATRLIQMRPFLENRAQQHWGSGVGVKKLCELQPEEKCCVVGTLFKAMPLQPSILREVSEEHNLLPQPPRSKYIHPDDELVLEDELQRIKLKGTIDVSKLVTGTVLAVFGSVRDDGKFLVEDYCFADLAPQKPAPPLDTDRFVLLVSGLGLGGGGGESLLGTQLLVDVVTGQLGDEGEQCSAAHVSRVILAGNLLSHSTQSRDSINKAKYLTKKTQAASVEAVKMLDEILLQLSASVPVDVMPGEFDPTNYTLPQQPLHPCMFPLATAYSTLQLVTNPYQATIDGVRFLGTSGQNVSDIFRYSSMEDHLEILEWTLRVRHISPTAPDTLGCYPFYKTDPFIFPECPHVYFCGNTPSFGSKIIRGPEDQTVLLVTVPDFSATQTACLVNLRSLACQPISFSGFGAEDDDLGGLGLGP
T1 sequence (Q9HCU8 whole entry, stated change not applied, chain 4 of 3): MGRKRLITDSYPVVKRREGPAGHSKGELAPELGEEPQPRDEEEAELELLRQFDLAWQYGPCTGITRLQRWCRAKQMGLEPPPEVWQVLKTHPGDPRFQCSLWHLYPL

- end point of DNA synthesis by Pol δ (40 nM) pre-mixed with N-HelQ^RGx3 (5 nM), percent of DNA as product (68.8% uninhibited) [1]: 12.7%
B1: N-HelQ R51G/R52G/R53G (domain or fragment)
chain: MDECGSRIRRRVSLPKRNRPSLGCIFGAPTAAELVPGDEGKEEEEMVAENGGGKTAGVLPVEVQPLLLSDSPECLVLGGGDTNPDLLRHMPTDRGVGDQPNDSEVDMFGDYDSFTENSFIAQVDDLEQKYMQLPEHKKHATDFATENLCSESIKNKLSITTIGNLTELQTDKHTENQSGYEGVTIEPGADLLYDVPSSQAIYFENLQNSSNDLGDHSMKERDWKSSSHNTVNEELPHNCIE

- FRET ratio of DNA single-strand annealing by HelQ (125 nM) with Pol δ complex (150 nM) added; 0.51 without Pol δ [2]: 0.76 FRET ratio
- FRET efficiency of DNA single-strand annealing by HelQ (125 nM) with POLD3 alone (150 nM) added; 0.50 without POLD3, 0.07 with POLD3 alone [3]: 0.87 FRET ratio
B2: Human HelQ (enzyme, UniProt Q8TDG4 1-1101, looked up)
chain: T3 sequence

B3: forked DNA (MW12/MW14) (dsDNA)
DNA 1: GTCGGATCCTCTAGACAGCTCCATGATCACTGGCACTGGTAGAATTCGGC
DNA 2: CAACGTCATAGACGATTACATTGCTACATGGAGCTGTCTAGAGGATCCGA
- binding result [4]: binds
